Results: the supplement of paper PMC10567573

B1: DVL3 (parent)
chain: SDVVDWLYHNVEGFTDRREARKYA
B2: GMCL1 (parent)
chain: FCYCAGSHKRKRSSGSFCYCHPDS

Variants of: B1
Assay: protein stability index of a GFP-peptide fusion (GPS, HEK-293T) (PSI 1-6); higher = more stable
Settings: c terminus: a fixed tail appended
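Further: lentivirally expressed fusions sorted by FACS into six bins by GFP to DsRed ratio, PSI derived from sequencing read proportions per bin multiplied by bin number.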

Protein stability index: each site, then its substitutions
N10: L 2 | I 2.25 | M 1.94 | F 1.75 | C 2.1 | K 2.34 | D 4.09 | H 2.7 | A 2.1 | R 2.6 | G 3.03 | Q 2.91 | E 3.69
D5: M 2.87 | H 2.44 | V 1.19 | E 3.6 | C 1.84 | S 2.5 | N 2.07 | F 2.21 | L 1.41 | Q 3.23 | W 1.7 | A 1.98 | I 1.82 | G 3.06 | P 3.71 | T 2.75 | Y 2.53 | K 2.36
S1: D 3.92 | C 2.71 | K 2 | T 3.1 | Q 2.9 | L 3.51 | R 2.52 | H 3.27 | I 2 | V 3.5 | N 3.42 | E 3.76 | P 2.15 | G 3.78 | F 2.23
W6: I 4.13 | C 3.81 | T 4.54 | Y 3.6 | L 4.35 | H 4.21 | N 4.95 | S 4.76 | E 4.97 | D 4.75 | P 4.86 | V 4.58 | K 4.38 | G 4.32 | R 4.79 | A 4.58 | F 2.9 | Q 4.22 | M 3.82
V4: H 3.52 | Q 3.67 | K 3.46 | T 3.6 | C 2.77 | A 3.09 | L 2.98 | E 4.08 | P 3.81 | W 2.44 | Y 3.21 | S 3.68 | D 3.78 | R 3.84 | N 3.89 | F 3.53 | M 3.76 | I 2.56 | G 3.84
D2: E 3.01 | M 2.09 | S 2.74 | G 2.89 | K 2.73 | R 2.23 | W 1.64 | L 2.12 | Y 2.26 | V 2.72 | P 2.62 | F 1.9 | A 1.85 | I 2.46 | T 2.9 | N 3.36 | C 2.16 | H 2.91
Y8: I 2.39 | T 3.63 | V 2.93 | K 3.83 | P 4.51 | E 4.2 | G 4.25 | L 2.27 | N 3.87 | D 4.61 | S 3.56 | M 2.74 | C 3.79 | W 2.31 | Q 3.81
H9: L 2.55 | D 3.66 | W 2.42 | I 2.09 | Q 3.11 | R 2.8 | A 2.37 | M 2.79 | K 2.67 | C 2.13 | Y 3.21 | F 2.14 | G 3.32 | S 2.94 | P 4 | V 2.16 | T 2.67 | N 3.83
V3: A 3.98 | L 3.15 | E 5.17 | Y 3 | M 3.85 | T 4.13 | I 2.98 | C 3.69 | Q 4.64 | H 3.39 | S 3.44 | D 4.59 | F 2.07 | W 2.04 | N 4.22 | P 4.24 | R 3.95
L7: D 4.58 | Y 3.28 | C 3.65 | H 4.68 | E 5.12 | W 3.58 | A 3.54 | S 4.75 | T 4.05 | I 3.01 | Q 4.31 | G 4.25 | V 3.5 | R 2.65 | M 3.44 | P 3.63 | F 2.12 | K 4.64

Variants of: B2
Assay: as above
Settings: c terminus: a fixed tail appended

Protein stability index: each site, then its substitutions
D23: H 1.88 | I 1.83 | G 2.27 | L 1.98 | E 2.13 | Y 2.06 | R 1.99 | W 2.16 | Q 2.34 | T 3.04 | K 2.42 | P 2.86 | C 1.28 | S 1.94 | F 2.06 | N 1.92 | V 1.44 | M 2.39 | A 1.35
S16: K 3.24 | M 2.44 | W 2.06 | V 2.16 | N 1.36 | I 2.49 | P 1.36 | Y 2.14 | T 2.29 | Q 1.69 | L 1.26 | H 2 | R 1.59
H21: Y 2.43 | S 2.87 | E 2.73 | L 2.88 | C 1.11 | R 2.54 | V 2.51 | K 3.17 | W 1.63 | G 2.55 | A 2.41 | D 2.47 | T 2.47 | F 2.51 | I 2.69 | P 2.21 | N 2.43 | M 3.12 | Q 2.74
S24: R 2.28 | D 1.87 | W 1.38 | I 2.03 | G 2.46 | V 2.12 | H 2.09 | C 1.51 | A 1.94 | K 2.44 | F 1.61 | T 2.02 | N 2.12 | Q 2.9 | Y 1.84 | L 1.91 | E 2.51 | P 1.88 | M 1.78
F17: N 2.06 | T 2.27 | L 2.3 | R 2.53 | H 2.46 | Q 2.61 | W 1.9 | P 2.98 | Y 2.25 | V 2.04 | S 1.78 | K 2.17 | A 2.11 | I 2.05 | M 2.15 | D 2.84 | G 2.19 | E 3.01 | C 3.2
Y19: M 3 | S 3.31 | D 2.9 | E 3.63 | G 2.52 | P 3.37 | A 3.72 | I 2.52 | Q 3.03 | R 3.17 | T 3.6 | C 2.86 | W 1.28 | H 2.67 | V 3.03 | N 3.38 | F 2.31 | K 3.4 | L 1.96
P22: N 2.69 | H 2.29 | D 2.78 | R 2.1 | S 2.53 | T 1.32 | F 1.38 | E 2.01 | W 2.27 | M 1.85 | G 2.44 | K 2.09 | C 2.12 | V 1.96 | I 1.47 | L 1.63 | Q 1.91 | A 2.64 | Y 2.02
C20: E 1.88 | S 1.5 | D 2.73 | W 1.95 | L 2.18 | G 1.99 | Y 1.71 | Q 1.5 | K 1.58 | F 1.84 | T 1.98 | A 2.01 | N 1.99 | M 2.3 | H 2 | V 1.91 | R 1.68 | P 1.94 | I 2.06
C18: R 1.63 | A 2.74 | I 2.27 | Y 1.14 | E 2.74 | H 1.77 | K 1.95 | M 2.11 | V 1.83 | N 2.2 | S 2.65 | G 2.18 | T 1.79 | Q 2.63 | W 2.99 | L 2.4 | P 2.1 | D 1.87
